Tests used:
hIAPP-T7n = hIAPP-T7n (UniProt P00573+P10997); conditions: clonal SP encoding the sequence (FIG. 5E)
Source text: Next, we examined if our system could discover inhibitors of other disease-associated APPs. We targeted human islet amyloid polypeptide (hIAPP), which forms amyloid deposits in patients with type-2 diabetes that are hypothesized to contribute to […] dysfunction.^40 To create a selection for hIAPP aggregation inhibitors, we simply cloned hIAPP in place of Aβ42 in our selection circuit (FIG. 2B). We used an SP-encoded CZ6 SICLOPPS library (Z=NDT codon encoded amino acid: R, N, D, C, G, H, I, L, F, S, Y, or V) (˜3×10^6 total sequences). This codon set was chosen to reduce the theoretical library size and facilitate library cloning. The library (total of ˜5×10^6 transformants) was cloned on a SP obtained from an additional 250 hours of PACE using a more stringent selection (FIGS. 10A-10D).
(§1) Strain S206035 was used for plasmid cloning, amplification, and phage assays. Strain S220835 was used for SP cloning and plaque assays. Plasmids and SPs were cloned by USER assembly or blunt-end ligation. Competent cells were prepared and transformed using the TSS method. Phage propagation and plaque assays were performed as previously described.^54 Unless otherwise noted, phage propagation assays used an input of […] phage to infect a 2 mL culture of host cells.

Aβ42-T7n = Aβ42-T7n (UniProt P00573+P05067); conditions: clonal SP encoding the sequence
Source text: Therefore, we turned to a split-T7 RNA polymerase (T7 RNAP) reporter used to evolve proteins with improved soluble expression.^33 In our new selection, host E. coli express an aggregation-prone protein (APP) fused to the N-terminal half of split-T7 RNAP (T7n). When the APP-T7n fusion is translated, it misfolds due to the APP, preventing T7n from associating with the C-terminal half of split-T7 RNAP (T7c; FIG. 2A). If a SP-encoded inhibitor binds to and prevents APP aggregation, the fused T7n will remain folded and join with T7c to produce full-length T7 RNAP. The reconstituted T7 RNAP then transcribes gIII, which we place under control of the T7 promoter (PT7), producing pill and allowing the SP to reproduce (FIGS. 2A and 2B).
We used the SICLOPPS method to biosynthesize cyclic peptides that can be selected in E. coli.^15 In SICLOPPS, a precursor fusion consisting of the C-terminal half of the Ssp DnaE split intein, the peptide sequence to be cyclized, and the N-terminal half of the same split intein undergoes intein splicing after translation to produce head-to-tail cyclized peptides (FIG. 7).
as §1

Sequence of Aβ42-T7n (P05067+P00573 fused): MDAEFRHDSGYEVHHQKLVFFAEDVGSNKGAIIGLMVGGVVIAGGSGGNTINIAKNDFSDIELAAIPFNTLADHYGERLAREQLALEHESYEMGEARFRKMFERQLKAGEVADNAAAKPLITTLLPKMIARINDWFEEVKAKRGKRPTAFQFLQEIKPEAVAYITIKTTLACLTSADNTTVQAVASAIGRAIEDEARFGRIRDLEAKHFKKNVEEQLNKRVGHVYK
Sequence of hIAPP-T7n (P10997+P00573 fused): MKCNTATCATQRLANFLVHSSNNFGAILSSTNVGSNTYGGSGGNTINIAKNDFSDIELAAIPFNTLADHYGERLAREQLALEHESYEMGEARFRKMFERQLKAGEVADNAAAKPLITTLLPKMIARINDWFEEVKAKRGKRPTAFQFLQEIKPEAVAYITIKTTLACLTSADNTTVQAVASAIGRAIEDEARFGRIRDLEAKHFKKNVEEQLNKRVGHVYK

Substance: CHVVGVI (cyclised; Circular) [cyclo-CHVVGVI]
- phage propagation activity on hIAPP-T7n selection (hIAPP-T7n): propagated robustly
- phage propagation activity (fitness) on Aβ42-T7n selection (Aβ42-T7n): propagated robustly
